The values below come from patent US20220389118A1 (Chugai, published 2022).

Test [1] deals with T1, soluble human IL-6 receptor (hsIL-6R) (human, UniProt P08887 20-357).
T1 sequence: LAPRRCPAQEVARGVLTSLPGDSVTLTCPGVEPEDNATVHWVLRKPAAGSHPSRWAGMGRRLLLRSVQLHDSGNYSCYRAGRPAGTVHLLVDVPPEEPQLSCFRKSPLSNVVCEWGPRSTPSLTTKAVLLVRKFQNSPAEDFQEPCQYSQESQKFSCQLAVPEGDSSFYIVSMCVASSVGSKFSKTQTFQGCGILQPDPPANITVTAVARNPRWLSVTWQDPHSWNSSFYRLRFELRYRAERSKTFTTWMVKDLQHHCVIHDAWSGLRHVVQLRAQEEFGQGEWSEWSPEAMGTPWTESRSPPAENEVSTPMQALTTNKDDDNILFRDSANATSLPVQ
Briefly: SPR (Biacore T100), 3 µM CaCl2; estimated by Equation 3; summary table. As for the experimental part: (§1) The kinetic analysis of the antigen-antibody reactions was conducted in solutions with 2 mM and 3 μM calcium ion concentrations, set as high and low calcium ion concentration conditions, respectively. The antibody of interest was captured on Sensor chip CM4 (GE Healthcare) on which an appropriate amount of Protein A (Invitrogen) was immobilized by an amine coupling method. Two buffers [10 mM ACES, 150 mM NaCl, 0.05% (w/v) Tween 20, and 2 mM CaCl₂) (pH 7.4) or 10 mM ACES, 150 mM NaCl, 0.05% (w/v) Tween 20, and 3 μmol/L CaCl₂ (pH 7.4)] were used as running buffers. These buffers were used for diluting human IL-6 receptor. All the measurements were conducted at 37° C.
(§2) Subsequently, the sensor chip was regenerated by injecting 10 mM glycine-HCl (pH 1.5) at a flow rate 30 μL/min for 30 seconds. Dissociation constants (KD) (M) were calculated from the sensorgrams obtained in the measurement, using a steady-state affinity model. Each parameter was calculated using the Biacore T100 Evaluation Software (GE Healthcare).

For test [2], the target named is T1, soluble human IL-6 receptor (hsIL-6R). Briefly: SPR (Biacore T100), 3 µM CaCl2, pH 7.4, 37 C; KD estimated from Req, Rmax, RI and C by Equation 3. As for the experimental part:
as §1, §2

In test [3] the target is T2, human FcγRIa extracellular domain with C-terminal His tag (human, UniProt P12314 16-292).
T2 construct: not shown: His tag at the C terminus
T2 sequence (P12314 16-292): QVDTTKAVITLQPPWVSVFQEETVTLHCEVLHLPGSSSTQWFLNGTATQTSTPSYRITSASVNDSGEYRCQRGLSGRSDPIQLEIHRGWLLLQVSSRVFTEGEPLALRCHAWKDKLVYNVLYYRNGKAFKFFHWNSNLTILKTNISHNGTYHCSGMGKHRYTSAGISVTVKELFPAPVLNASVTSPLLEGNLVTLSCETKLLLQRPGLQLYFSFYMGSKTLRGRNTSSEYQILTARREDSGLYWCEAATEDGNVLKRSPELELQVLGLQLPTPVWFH
Kind of test: SPR (Biacore), antibody captured, FcγR analyte.

Test [4] addresses T3, human FcγRIIa type H (allotype H131) extracellular domain with C-terminal His tag (human, UniProt P12318 34-217).
T3 construct: extracellular domain; also called FcγRIIaH; FcγRIIa H type; not shown: His tag at the C terminus
T3 sequence (looked up): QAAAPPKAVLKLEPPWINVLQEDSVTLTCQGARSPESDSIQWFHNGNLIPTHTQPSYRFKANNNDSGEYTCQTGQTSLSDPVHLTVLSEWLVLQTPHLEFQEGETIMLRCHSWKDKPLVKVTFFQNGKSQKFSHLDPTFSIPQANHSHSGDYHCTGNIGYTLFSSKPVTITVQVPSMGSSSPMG
Briefly: SPR (Biacore), antibody captured, FcγR analyte. For orientation: SPR reads the build-up and loss of mass on a sensor chip optically.

The target of test [5] is T4, human FcγRIIb extracellular domain with C-terminal His tag (human, UniProt P31994 43-217).
T4 construct: extracellular domain; not shown: His tag at the C terminus
T4 sequence (looked up): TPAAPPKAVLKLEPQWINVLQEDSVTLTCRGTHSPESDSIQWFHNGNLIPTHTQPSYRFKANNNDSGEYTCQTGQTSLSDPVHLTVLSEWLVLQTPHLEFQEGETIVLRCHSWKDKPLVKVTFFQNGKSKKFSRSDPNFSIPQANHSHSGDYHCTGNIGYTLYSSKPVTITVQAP
Briefly: SPR (Biacore), antibody captured, FcγR analyte.

In test [6] the target is T5, human FcγRIIIa type V (allotype V158) extracellular domain with C-terminal His tag (human, UniProt P08637 17-208).
T5 construct: extracellular domain; also called FcγRIIIaV; FcγRIIIa V type; not shown: His tag at the C terminus
T5 sequence (P08637 17-208 F176V): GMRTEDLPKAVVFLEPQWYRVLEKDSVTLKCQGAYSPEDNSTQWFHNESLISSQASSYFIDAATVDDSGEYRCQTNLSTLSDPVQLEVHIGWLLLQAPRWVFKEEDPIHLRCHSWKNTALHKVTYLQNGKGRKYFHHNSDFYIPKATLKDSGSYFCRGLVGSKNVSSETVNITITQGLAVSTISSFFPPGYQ
Kind of test: SPR (Biacore), antibody captured, FcγR analyte.

For test [7], the target named is T4, human FcγRIIb extracellular domain with …. Kind of test: SPR (Biacore); KD ratio against IL6R-B3/IL6R-L.
For test [8], the target named is T6, human FcγRIIb extracellular domain (human, UniProt P31994 43-217).
T6 construct: also called FcγIIB; not shown: His tag at the C terminus
T6 sequence: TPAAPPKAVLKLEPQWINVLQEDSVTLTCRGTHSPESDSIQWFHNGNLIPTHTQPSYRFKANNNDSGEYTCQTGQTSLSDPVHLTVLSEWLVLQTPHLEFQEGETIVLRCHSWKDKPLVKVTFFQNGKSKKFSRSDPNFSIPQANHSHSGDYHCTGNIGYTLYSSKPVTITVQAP
Briefly: fold against IL6R-B3/IL6R-L, from SPR KD values.

Test [9] has as its target T7, human FcγRIIa type R extracellular domain (human, UniProt P12318 34-217).
T7 construct: also called FcγRIIaR; FcγRIIa(R); not shown: His tag at the C terminus
T7 chain: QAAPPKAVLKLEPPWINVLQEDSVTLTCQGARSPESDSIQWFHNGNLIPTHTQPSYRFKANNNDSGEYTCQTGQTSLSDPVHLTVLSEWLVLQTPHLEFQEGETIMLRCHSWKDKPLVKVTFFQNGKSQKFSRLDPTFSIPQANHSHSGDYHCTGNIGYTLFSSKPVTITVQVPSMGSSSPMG
Briefly: fold against IL6R-B3/IL6R-L, from SPR KD values.

The target of test [10] is T6, human FcγRIIb extracellular domain. Briefly: ratio of the SPR KD for FcγRIIaH to the KD for FcγRIIb (selectivity).
The target is the same in test [11]. Briefly: ratio of the SPR KD for FcγRIIaR to the KD for FcγRIIb (selectivity).
Test [12] has the same target. Kind of test: SPR (Biacore), antibody captured on chip, FcγR extracellular domain as analyte, 25 C.
Test [13] deals with T8, human FcγRIa extracellular domain (human, UniProt P12314 16-292).
T8 construct: also called CD64; not shown: His tag at the C terminus
T8 sequence (P12314 16-292): as the sequence (P12314 16-292) above
The description is as above.

Test [14] has as its target T7, human FcγRIIa type R extracellular …. The test is described as above.
Test [15] addresses T9, human FcγRIIa type H extracellular domain (human, UniProt P12318 34-217).
T9 construct: also called FcγRIIaH; FcγRIIa(H); not shown: His tag at the C terminus
T9 sequence: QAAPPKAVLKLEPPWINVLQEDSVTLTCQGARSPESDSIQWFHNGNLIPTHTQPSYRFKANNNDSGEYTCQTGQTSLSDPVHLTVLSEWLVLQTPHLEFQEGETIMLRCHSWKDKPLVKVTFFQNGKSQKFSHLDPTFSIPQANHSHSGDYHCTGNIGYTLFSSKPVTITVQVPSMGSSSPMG
The description is as above.

Test [16] has as its target T10, human FcγRIIa type R (allotype R131) extracellular domain with C-terminal His tag (human, UniProt P12318 34-217).
T10 construct: extracellular domain; also called FcγRIIaR; FcγRIIa R type; not shown: His tag at the C terminus
T10 sequence (looked up): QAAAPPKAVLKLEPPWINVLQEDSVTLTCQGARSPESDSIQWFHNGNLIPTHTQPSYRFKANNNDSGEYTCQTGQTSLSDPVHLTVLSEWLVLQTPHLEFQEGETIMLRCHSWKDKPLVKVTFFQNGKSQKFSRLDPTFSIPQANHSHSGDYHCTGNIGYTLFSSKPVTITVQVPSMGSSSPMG
Kind of test: SPR (Biacore), antibody captured, FcγR analyte.

The target in test [17] is T11, soluble human IL-6 receptor (human, UniProt P08887 20-357).
T11 construct: also called hsIL-6R
T11 sequence: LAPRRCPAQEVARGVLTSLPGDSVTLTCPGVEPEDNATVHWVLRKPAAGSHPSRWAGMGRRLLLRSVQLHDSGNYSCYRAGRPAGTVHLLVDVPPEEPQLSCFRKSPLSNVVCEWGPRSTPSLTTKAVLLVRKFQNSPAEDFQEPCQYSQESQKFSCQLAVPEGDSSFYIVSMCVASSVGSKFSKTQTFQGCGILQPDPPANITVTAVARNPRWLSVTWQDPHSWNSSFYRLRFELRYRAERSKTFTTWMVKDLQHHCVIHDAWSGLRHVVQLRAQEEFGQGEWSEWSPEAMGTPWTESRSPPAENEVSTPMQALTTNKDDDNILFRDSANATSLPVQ
Kind of test: SPR (Biacore T100), about 300 RU of antibody captured on a Protein A/G chip (CM5), human IL-6 receptor as analyte, pH 7.4, 1.2 mM CaCl2, 37 °C. On the procedure:
These buffers were each used to dilute human IL-6 receptor. All measurements were carried out at 37° C.
Then, 10 mM glycine-HCl (pH 1.5) was injected at a flow rate of 30 μl/min for 30 seconds to regenerate the sensor chip.

B1: 6RL#9-IgG1 (antibody, V domains shown)
VH: QVQLVQSGAEVKKPGASVKVSCKASGYTFTSYYMHWVRQAPGQGLEWMGIINPSGGSTSYAQKFQGRVTMTRDTSTSTVYMELSSLRSEDTAVYYCARDDPGGGEYYFDYWGQGTLVTVSS
VL: QSVLTQPPSVSGAPGQRVTISCTGSRSNMGAGYDVHWYQLLPGAAPKLLISHNTHRPSGVPDRFSGSKSGASASLAITGLQAEDEADYYCQSHDSSLSAVVFGGGTKLTVLS
With B1, the Kd (commonly the concentration at which binding is half-saturated) in [1] is ≥ 31000 nM; in test [2] it was ~31000 nM.

B2: IL6R-BP198/IL6R-L (antibody, human IgG1, kappa)
heavy: QVQLQESGPGLVKPSETLSLTCAVSGHSISHDHAWSWVRQPPGEGLEWIGFISYSGITNYNPSLQGRVTISRDNSKNTLYLQMNSLRAEDTAVYYCARSLARTTAMDYWGEGTLVTVSSASTKGPSVFPLAPSSKSTSGGTAALGCLVKDYFPEPVTVSWNSGALTSGVHTFPAVLQSSGLYSLSSVVTVPSSSLGTQTYICNVNHKPSNTKVDKKVEPKSCDKTHTCPPCPAPDYLGGDSVFLFPPKPKDTLMISRTPEVTCVVVDVSDEDGEVKFNWYVDGVEVHNAKTKPREEQYNSTYRVVSVLTVLHQDWLNGKEYKCKVSNAALPKPIEKTISKAKGQPREPQVYTLPPSRDELTKNQVSLTCLVKGFYPSDIAVEWESNGQPENNYKTTPPVLDSDGSFFLYSKLTVDKSRWQQGNVFSCSVMHEALHNHYTQESLSLSP
light: not shown
notes: copies: 2 + 2
Take B2: the Kd came out at 11 nM in [3], 20000 nM in test [4], 200 nM in test [5] and 44000 nM in test [6]. The “KD(IIb) of parent polypeptide/KD(IIb) of altered polypeptide” value in [7] was 15.7.

B3: IL6R-BP565/IL6R-L (antibody, human IgG1, kappa)
heavy: QVQLQESGPGLVKPSETLSLTCAVSGHSISHDHAWSWVRQPPGEGLEWIGFISYSGITNYNPSLQGRVTISRDNSKNTLYLQMNSLRAEDTAVYYCARSLARTTAMDYWGEGTLVTVSSASTKGPSVFPLAPSSKSTSGGTAALGCLVKDYFPEPVTVSWNSGALTSGVHTFPAVLQSSGLYSLSSVVTVPSSSLGTQTYICNVNHKPSNTKVDKKVEPKSCDKTHTCPPCPAPDLLGDDSVFLFPPKPKDTLMISRTPEVTCVVVDVAEEDGEVKFNWYVDGVEVHNAKTKPREEQDNSTYRVVSVLTVLHQDWLNGKEYKCKVSNKALPRPIEKTISKAKGQPREPQVYTLPPSRDELTKNQVSLTCLVKGFYPSDIAVEWESNGQPENNYKTTPPVLDSDGSFFLYSKLTVDKSRWQQGNVFSCSVMHEALHNHYTQESLSLSP
light: not shown
notes: copies: 2 + 2
B3: the “KD(IIb) of the parent polypeptide/KD(IIb) of the altered polypeptide” value in [8] worked out at 565. Further, the “KD(IIaR) of the parent polypeptide/KD(IIaR) of the altered polypeptide” value in [9] came out at 4.8. The “KD(IIaH)/KD(IIb)” value in test [10] came out at 856. In addition, in test [11], the “KD(IIaR)/KD(IIb)” value was found to be 41.5. Further, the Kd in test [12] amounted to 5.5 nM; in [13], 2.4 nM; in test [14], 230 nM; in test [15] it was 4700 nM.

B4: IL6R-BP223/IL6R-L (antibody, human IgG1, kappa)
heavy: QVQLQESGPGLVKPSETLSLTCAVSGHSISHDHAWSWVRQPPGEGLEWIGFISYSGITNYNPSLQGRVTISRDNSKNTLYLQMNSLRAEDTAVYYCARSLARTTAMDYWGEGTLVTVSSASTKGPSVFPLAPSSKSTSGGTAALGCLVKDYFPEPVTVSWNSGALTSGVHTFPAVLQSSGLYSLSSVVTVPSSSLGTQTYICNVNHKPSNTKVDKKVEPKSCDKTHTCPPCPAPEYLGDDSVFLFPPKPKDTLMISRTPEVTCVVVDVSDEDGEVKFNWYVDGVEVHNAKTKPREEQYNSTYRVVSVLTVLHQDWLNGKEYKCKVSNAALPRPIEKTISKAKGQPREPQVYTLPPSRDELTKNQVSLTCLVKGFYPSDIAVEWESNGQPENNYKTTPPVLDSDGSFFLYSKLTVDKSRWQQGNVFSCSVMHEALHNHYTQESLSLSP
light: not shown
notes: copies: 2 + 2
Molecule B4 displayed a Kd in [16] of 600 nM.

B5: 6RpH#02 (antibody, human IgG1, kappa, V domains shown)
VH: QVQLVQSGAEVKKPGSSVKVSCKASGGTFSSYAISWVRQAPGQGLEWMGGIIPIFGTANYAQKFQGRVTITADESTSTAYMELSSLRSEDTAVYYCMINGVWEGGMDVWGQGTTVTVSS
VL: DIQMTQSPSSLSASVGDRVTITCRASQSIHSHLNWYQQKPGKAPKLLIYHASKLQSGVPSRFSGSGSGTDFTLTISSLQPEDFATYYCQQHGNSPLTFGQGTKVEIKR
For the molecule B5, in test [17], the binding result was “binds”.

B6: FH4-IgG1 (antibody, V domains shown)
VH: QVQLVQSGAEVKKPGSSVKVSCKASGGTFSSYAISWVRQAPGQGLEWMGGIIPIFGTANYAQKFQGRVTITADESTSTAYMELSSLRSEDTAVYYCARERDYYDSSGYYDAFDIWGQGTMVTVSS
VL: ETTVTQSPSFLSASVGDRVTITCITTTDIDDDMNWFQQEPGKAPKLLISEGNILRPGVPSRFSSSGYGTDFTLTISKLQPEDFATYYCLQSDNLPFTFGQGTKLEIKR
On to B6, for which the Kd is ≥ 34000 nM in [1] and ~34000 nM in test [2].
